Source: patent WO2021028359A1
Several values for one entry are separate records, joined by “and”; a condition that tells them apart may be missing. Identical values can stand only once.

Target: CD20 on autologous CD19+CD20+ B cells (human) (UniProt P11836)
Experiment: cell-based or functional assay

Sequence of CD20 on autologous CD19+CD20+ B cells (human) (P11836 whole entry): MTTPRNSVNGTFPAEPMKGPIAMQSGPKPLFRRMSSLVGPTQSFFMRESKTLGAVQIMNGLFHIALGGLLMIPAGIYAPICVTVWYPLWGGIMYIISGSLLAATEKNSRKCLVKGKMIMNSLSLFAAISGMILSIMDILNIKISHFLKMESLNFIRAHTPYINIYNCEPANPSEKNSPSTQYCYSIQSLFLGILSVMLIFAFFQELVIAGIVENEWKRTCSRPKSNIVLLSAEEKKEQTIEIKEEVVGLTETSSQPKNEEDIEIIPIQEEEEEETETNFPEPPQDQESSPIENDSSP

In the case of “CD20 CAR (CD8 leader, scFv directed against CD20 (B9E9), streptavidin tag, CD8 alpha linker and transmembrane domain, 4-1BB activation domain, CD3 zeta activation domain) (receptor)”, the fold of CD69 activation of Tregs, hFXP3-driven CAR, 24 h with autologous B cells is reported as 1.9 fold and 1.8 fold and the fold of CD69 activation of Tregs, hPGK-driven CAR (TX028), 24 h with autologous B cells is reported as 1.5 fold.
